Assay [1] deals with T1, human TIM-3 (human, UniProt Q8TDQ0 22-202, limits assumed).
T1 construct: also called HAVCR2; target antigen
Briefly: BLI (Octet-96); antigen not named in the paragraph. Background: In BLI a coated tip is dipped into the sample, and binding shifts an interference pattern.

Assay [2] concerns the target T2, biotinylated human TIM-3 (human, UniProt Q8TDQ0 22-202, limits assumed, biotinylated (sites not given)). Briefly: competition ELISA: antibody coated, biotinylated human TIM-3 preincubated with competitor 4H2. On the technique in general: In an ELISA, binding on a coated surface is turned into a signal by an enzyme label.
Assay [3] addresses T2, biotinylated human TIM-3. In words: competition ELISA: antibody coated, biotinylated human TIM-3 preincubated with competitor TSR022.
Experimental: (§1) Antibodies were diluted with PBS to 2 μg/mL. 50 μl antibody solution was added to each well of the 96-well plate, which was incubated at 4° C. overnight. The plate was then washed with wash buffer (0.05% Tween in PBS) three times and blocked with 5% skim milk in PBS at 37° C. for two hours. The biotinylated human TIM-3 and antibodies were preincubated at room temperature for half an hour and then added to the plate. The plate was then incubated at room temperature for 1 hour and washed three times with wash buffer. 50 μl streptavidin HRP (1:1000, BD) was then added to each well at room temperature and incubated for about 1 hour. 50 μl of TMB substrate was added to each well, and the reaction was then terminated with 50 μl HCL after 1-5 minutes. Absorbance was read at 450 nm and IC50 value was analyzed.
The target of assay [4] is T2, biotinylated human TIM-3. Briefly: competition ELISA: antibody coated, biotinylated human TIM-3 preincubated with competitor MBG453.
Experimental: as §1
The target in assay [5] is T2, biotinylated human TIM-3. In words: competition ELISA: antibody coated, biotinylated human TIM-3 preincubated with competitor CH 10#.
Experimental: as §1
Assay [6] addresses T2, biotinylated human TIM-3. In words: competition ELISA: antibody coated, biotinylated human TIM-3 preincubated with competitor 19D11.
Experimental: as §1
The target in another assay is T3, mouse TIM-3 (mouse, UniProt Q8VIM0 20-281).
T3 construct: whole, on cells
Briefly: flow cytometry on cells stably expressing mouse TIM-3, PE-labelled secondary antibody; concentration not shown. Background: A flow cytometer gives signals particle by particle.

The target of assay [7] is T4, human TIM-3 recombinant protein (TIM-3-his) (human, UniProt Q8TDQ0 22-202).
T4 construct: also called TIM-3 protein; not shown: His tag
Briefly: biosensor (HFC sensor, Probe Life): antibody captured, TIM-3-his in solution, 1:1 fit.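 Also: antigen applied as a twofold dilution series, association and dissociation phases recorded, KD obtained as koff divided by kon.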

Assay [8] deals with T2, biotinylated human TIM-3. In words: competition ELISA: antibody coated, biotinylated human TIM-3 preincubated with competitor CH 11#.
Experimental: as §1
Assay [9] addresses T2, biotinylated human TIM-3. In words: competition ELISA: antibody coated, biotinylated human TIM-3 preincubated with competitor 16H1.
Experimental: as §1
In assay [10] the target is T2, biotinylated human TIM-3. In words: competition ELISA: antibody coated, biotinylated human TIM-3 preincubated with competitor 3E6.
Experimental: as §1
The next assay addresses T5, cynomolgus TIM-3 (cynomolgus, UniProt A0A2K5U3G7 22-294).
T5 construct: whole, on cells
T5 sequence: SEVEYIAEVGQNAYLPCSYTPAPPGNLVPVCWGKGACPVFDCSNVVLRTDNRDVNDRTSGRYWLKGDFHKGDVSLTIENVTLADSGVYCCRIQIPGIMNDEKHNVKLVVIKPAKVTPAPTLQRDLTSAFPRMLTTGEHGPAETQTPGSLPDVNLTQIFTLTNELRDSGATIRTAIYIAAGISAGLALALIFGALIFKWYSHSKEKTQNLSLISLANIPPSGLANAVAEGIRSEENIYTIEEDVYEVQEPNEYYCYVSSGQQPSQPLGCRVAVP
In words: flow cytometry on 293T cells stably expressing cynomolgus TIM-3, serially diluted antibody, PE-labelled secondary antibody [upper panel].

Assay [11] has as its target T1, human TIM-3. In words: blocking assay, flow cytometry: antibody preincubated with recombinant human TIM-3-Fc, then binding of TIM-3-Fc to apoptotic 293T cells; blocked ligand: phosphatidylserine.
Experimental: After the cells were washed once, PE-labelled goat anti-mouse IgG antibody was added and incubated for 1 hour at 4° C. Finally, samples were washed once with 1× Annexin-V buffer and fluorescence was measured with a flow cytometer (Canto II, BD, USA).
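For inhibit percentage in this document: plate-coated antibody at 2 µg/mL.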

Experimental for cynomolgus TIM-3: (§2) Briefly, serially diluted anti-TIM-3 antibodies were incubated with cell lines stably expressing mouse TIM-3 or cynomolgus TIM-3 (10⁵ cells/well). Then, PE-labelled mouse anti-human IgG antibody (Biolegend) was used as detection antibody. A flow cytometer (Canto II, BD, USA) was used to measure fluorescence.
Experimental for mouse TIM-3: as §2

B1: 3E6 VH2/3E6 VL0 (antibody, V domains shown)
VH: QVQLQESGPGLVKPSQTLSLTCTVSGYSITSGFAWNWIRQPPGKGLEWMGYISHSGSTSYNPSLKSRVTISVDTSKNQFSLKLSSVTAADTAVYYCARGYRSPWFAYWGQGTTVTVSS
VL: DIQMTQSPSSLSASVGDRVTITCKASQNVGANVAWYQQKPGKAPKSLIYSASYRYSGVPSRFSGSGSGTDFTLTISSLQPEDFATYYCQQYNSYPTFGGGTKVEIK
notes: Humanized 3E6; VH and VL cloned into vectors with constant regions (CH1-FC/CL) and expressed in 293F cells; also called humanized 3E6 VH2/VL0
Consider B1, for which binding with human TIM-3 [1] was characterised by a dissociation constant (Kd) of 2.21 nM.

B2: 3E6 VH7/3E6 VL0 (antibody, V domains shown)
VH: QVQLQESGPGLVKPSQTLSLTCTVSGYSITSGFAWNWIRQPPGKGLEWMGYISHSGSTSYNPSLKSRITISRDTSKNQFSLKLSSVTAADTAVYYCARGYRSPWFAYWGQGTTVTVSS
VL: DIQMTQSPSSLSASVGDRVTITCKASQNVGANVAWYQQKPGKAPKSLIYSASYRYSGVPSRFSGSGSGTDFTLTISSLQPEDFATYYCQQYNSYPTFGGGTKVEIK
notes: Humanized 3E6; VH and VL cloned into vectors with constant regions (CH1-FC/CL) and expressed in 293F cells; also called humanized 3E6 VH7/VL0
For the molecule B2, binding with human TIM-3 [1] was characterised by a dissociation constant (Kd) of 1.96 nM.

B3: 3E6 VH6/3E6 VL0 (antibody, V domains shown)
VH: QVQLQESGPGLVKPSQTLSLTCTVSGYSITSGFAWNWIRQPPGKGLEWMGYISHSGSTSYNPSLKSRITISVDTSKNQFSLKLSSVTAADTAVYYCARGYRSPWFAYWGQGTTVTVSS
VL: DIQMTQSPSSLSASVGDRVTITCKASQNVGANVAWYQQKPGKAPKSLIYSASYRYSGVPSRFSGSGSGTDFTLTISSLQPEDFATYYCQQYNSYPTFGGGTKVEIK
notes: Humanized 3E6; VH and VL cloned into vectors with constant regions (CH1-FC/CL) and expressed in 293F cells; also called humanized 3E6 VH6/VL0
B3 returned a dissociation constant (Kd) with human TIM-3 [1] of 1.46 nM.

B4: 3E6 VH5/3E6 VL0 (antibody, V domains shown)
VH: QVQLQESGPGLVKPSQTLSLTCTVSGYSITSGFAWNWIRQPPGNGLEWIGYISHSGSTSYNPSLKSRITISRDTSKNQFSLKLSSVTAADTAVYYCARGYRSPWFAYWGQGTTVTVSS
VL: DIQMTQSPSSLSASVGDRVTITCKASQNVGANVAWYQQKPGKAPKSLIYSASYRYSGVPSRFSGSGSGTDFTLTISSLQPEDFATYYCQQYNSYPTFGGGTKVEIK
notes: Humanized 3E6; VH and VL cloned into vectors with constant regions (CH1-FC/CL) and expressed in 293F cells; also called humanized 3E6 VH5/VL0
As for B4, in the assay with human TIM-3 [1], binding was characterised by a dissociation constant (Kd) of 1.78 nM.

B5: 3E6 VH3/3E6 VL0 (antibody, V domains shown)
VH: QVQLQESGPGLVKPSQTLSLTCTVSGYSITSGFAWNWIRQPPGNGLEWIGYISHSGSTSYNPSLKSRVTISVDTSKNQFSLKLSSVTAADTAVYYCARGYRSPWFAYWGQGTTVTVSS
VL: DIQMTQSPSSLSASVGDRVTITCKASQNVGANVAWYQQKPGKAPKSLIYSASYRYSGVPSRFSGSGSGTDFTLTISSLQPEDFATYYCQQYNSYPTFGGGTKVEIK
notes: Humanized 3E6; VH and VL cloned into vectors with constant regions (CH1-FC/CL) and expressed in 293F cells; also called humanized 3E6 VH3/VL0
With B5, binding with human TIM-3 [1] was put at a Kd of 1.98 nM.

B6: CH 11# (antibody, V domains shown)
VH: QVKLQQSGPDLVKPGASVKISCKASGYSFTGYYMHWVKQSHGKSLEWIGRVNPNNGGTTYKQKFKGKVILTVDKSSSTAYMELRSLTSEDSAVYYCAREGEYFDYYTMDYWGQGTTVTVSS
VL: DIELTQSPASLAVSLGQRATISCRASESVEYYGTSLMQWYQQKPGQPPKLLIYAASNVESGVPARFSGSVSGTDFSLNIHPVEEDDIAVYFCQQSRKVPITFGSGTKLELK
In the case of B6, the inhibit percentage with biotinylated human TIM-3 [2] is 99.6%; with biotinylated human TIM-3 [3], 0%; in the assay with biotinylated human TIM-3 [4], 29.4%; in the assay with biotinylated human TIM-3 [5], 98.2%; with biotinylated human TIM-3 [6], 99.4%; with biotinylated human TIM-3 [8], 100%. Moreover, the values for the inhibit percentage with biotinylated human TIM-3 [9] and with biotinylated human TIM-3 [10] were 0% and 97.8%, respectively. Further, the binding result with mouse TIM-3 is reported as “no binding”. In addition, in assay [7], the Kd was 19.1 nM. In [7], the koff worked out at 0.000705 s⁻¹. The kon in [7] turned out to be 36900 M⁻¹ s⁻¹.

B7: 3E6 (antibody, V domains shown)
VH: DVQLQEAGPGLVKPSQSLSLNCTVTGYSITSGFAWNWIRQFPGNKLEWMGYISHSGSTSYNPSLKSRISITRDTSKNQFFLQLNSVTTEDTATYYCARGYRSPWFAYWGQGTLVTVSA
VL: DIIMTQSQKFMSTSVGDRVSVTCKASQNVGANVAWYQQKPRQSPKALIYSASYRYSGVPDRFTGSGSGTDFTLTISNVQSEDLAEYFCQQYNSYPTFGGGTKLEIK
Take B7: the inhibit percentage with biotinylated human TIM-3 [2] was found to be 99.6%; with biotinylated human TIM-3 [3], 16.4%; with biotinylated human TIM-3 [4] it was 24.9%; with biotinylated human TIM-3 [5] it was 50.1%; in the assay with biotinylated human TIM-3 [6], 38.7%; with biotinylated human TIM-3 [8], 67.1%. Further, the inhibit percentage with biotinylated human TIM-3 [9] came out at 26.3%; with biotinylated human TIM-3 [10] it was 100%. For the same molecule, the binding result in the assay with mouse TIM-3 is “no binding”. Further, the 50% effective concentration (EC50 (read off the curve)) in the assay with cynomolgus TIM-3 was around 0.1 µg/mL. Also, in assay [7], the dissociation constant (Kd) is 0.23 nM. The dissociation rate constant (koff) in assay [7] was found to be 0.000284 s⁻¹. Also, the kon in assay [7] was 1.24e+06 M⁻¹ s⁻¹. Moreover, the “IC50 (read off the curve)” value with human TIM-3 [11] was around 4 µg/mL.

B8: 19D11 (antibody, V domains shown)
VH: DVQLQESGPDLVKPSQSLSLTCTVTGYSITSGYSWHWIRQFPGNKLEWMGYIYFSGSTNYNPSLKSRISITRDTSKNQFFLQLNSVTTEDTATYYCARGYRSAWFAYWGQGTLVTVSA
VL: DIVMTQSQKFMSTSVGDRVSVTCKASQNVGTNVAWYQQKPGQSPKTLIYSASYRYSGVPDRFTGSGSGTDFTLTISNVQSEDLAEYFCQQYNSYPLVTFGTGTKLELK
Turning to B8, the inhibit percentage in the assay with biotinylated human TIM-3 [2] amounted to 100%; with biotinylated human TIM-3 [3] it was 10.3%; in the assay with biotinylated human TIM-3 [4] it was 0%; in the assay with biotinylated human TIM-3 [5], 100%; in the assay with biotinylated human TIM-3 [6], 100%; with biotinylated human TIM-3 [8] it was 100%. The inhibit percentage with biotinylated human TIM-3 [9] came out at 0%; with biotinylated human TIM-3 [10], 100%. Further, the binding result with mouse TIM-3 was “no binding”. Also, the equilibrium dissociation constant (Kd) in assay [7] was 0.604 nM. In [7], the off-rate constant (koff) came out at 0.00037 s⁻¹. The kon in assay [7] was found to be 613000 M⁻¹ s⁻¹. The “IC50 (read off the curve)” value with human TIM-3 [11] is around 7 µg/mL.

B9: CH 10# (antibody, V domains shown)
VH: QVQLQQSGAELMKPGASVKISCKAIGYTFSSYWIEWVKQRPGHGLEWIGEISPGRGSTNYNEKFKGKATFTADTSSNTAYMQLSSLTSEDSAVYYCARDYYGSIFDVWGQGTTVTVSS
VL: DIELTQSPALMAASPGEKVTITCSASSSVSSSYLHWYQQKPGSSPKLWIYSTSNLASGVPARFSGSGSGTSYSLTISSMEAEDAATYYCQQWSSYPLTFGAGTKLEIK
With B9, the inhibit percentage with biotinylated human TIM-3 [2] amounted to 98.6%; with biotinylated human TIM-3 [3] it was 48.5%; with biotinylated human TIM-3 [4], 35.4%; in the assay with biotinylated human TIM-3 [5], 100%; with biotinylated human TIM-3 [6], 98.1%; with biotinylated human TIM-3 [8], 99.7%. The inhibit percentage with biotinylated human TIM-3 [9] amounted to 45.8%; in the assay with biotinylated human TIM-3 [10], 98.2%. The binding result in the assay with mouse TIM-3 is “no binding”. For the same molecule, the dissociation constant Kd in [7] was determined as 38.2 nM. In addition, the off-rate (koff) in [7] came to 0.00148 s⁻¹. In addition, the kon in [7] worked out at 38600 M⁻¹ s⁻¹. Also, the “IC50 (read off the curve)” value with human TIM-3 [11] was around 4 µg/mL.

B10: 4H2 (antibody, V domains shown)
VH: EVQLQESGPSLVKPSQTLSLTCSVTGDSITSGYWNWIRKFPGNKLEYMGYINYSGSTYYNPSLKSRISITRDTSKNQYYLQLNSVTTEDTATYYCATGNHFDYWGQGTTLTVSS
VL: DIQMTQSPSSLSASLGGKVTITCKASQDINKYIAWYQHKPGKGPRLLIHYTSTLQPGIPSRFSGSGSGTDYSFSISNLEPEDFATYYCLQYDNLLFTFGSGTKLEIK
In the case of B10, the inhibit percentage with biotinylated human TIM-3 [2] was determined as 100%; in the assay with biotinylated human TIM-3 [3] it was 16.7%; with biotinylated human TIM-3 [4] it was 28%; in the assay with biotinylated human TIM-3 [5], 56.8%; with biotinylated human TIM-3 [6], 39%; with biotinylated human TIM-3 [8], 62.5%. Besides, the figures for the inhibit percentage with biotinylated human TIM-3 [9] and in the assay with biotinylated human TIM-3 [10] were 28.9% and 99.9%, respectively. The binding result with mouse TIM-3 is given as “no binding”. For the same molecule, the concentration for a half-maximal effect (EC50 (read off the curve)) in the assay with cynomolgus TIM-3 is around 0.07 µg/mL. Further, the Kd in assay [7] was 0.424 nM. Besides, the off-rate (koff) in assay [7] came to 0.000558 s⁻¹. Moreover, the kon in [7] turned out to be 1.32e+06 M⁻¹ s⁻¹. Further, the “IC50 (read off the curve)” value with human TIM-3 [11] was around 4 µg/mL.

What is called Kd is the constant that tells how readily two partners part at equilibrium. In general, koff refers to the first-order rate constant of dissociation. What is called kon is the second-order rate constant of association. As usually defined, the EC50 (read off the curve) is the concentration that produces a half-maximal response. A higher EC50 (read off the curve) goes with a need for much substance.

Values taken from patent publication US20230365685A1 (SUZHOU NEOLOGICS BIOSCIENCE, published 2023).
